Data on one substance can be found in patent US20230057622A1.

In assay [1] the target is receptor on MCF-7 cells. Nature of the assay: cell-based or functional assay.
Assay [2] deals with receptor on MCF-7 cells. Nature of the assay: cell-based or functional assay. The source holds these as a separate data set.

Read-outs that look alike come from different tables or passages of the source.

For the substance “recombinant NRG polypeptide with an amino acid sequence of SEQ ID NO: 1 (from UniProt Q02297-11 122-190) (ligand)”, the values for the EC50 with receptor on MCF-7 cells [1] and in the assay with receptor on MCF-7 cells [2] were 0.924 nM and 1.65 nM, respectively.

Usually EC50 stands for the concentration needed to bring the measured effect to its halfway point. A lower EC50 goes with a more potent agent.
